Ends that are not written are not given here.
T1: ClpA D1 pore-2 loop variant QTQ (AAS 295–297 to QTQ), hexamer (E. coli, UniProt P0ABH9 1-758, M169T | 295–297 AAS to QTQ)
T1 sequence: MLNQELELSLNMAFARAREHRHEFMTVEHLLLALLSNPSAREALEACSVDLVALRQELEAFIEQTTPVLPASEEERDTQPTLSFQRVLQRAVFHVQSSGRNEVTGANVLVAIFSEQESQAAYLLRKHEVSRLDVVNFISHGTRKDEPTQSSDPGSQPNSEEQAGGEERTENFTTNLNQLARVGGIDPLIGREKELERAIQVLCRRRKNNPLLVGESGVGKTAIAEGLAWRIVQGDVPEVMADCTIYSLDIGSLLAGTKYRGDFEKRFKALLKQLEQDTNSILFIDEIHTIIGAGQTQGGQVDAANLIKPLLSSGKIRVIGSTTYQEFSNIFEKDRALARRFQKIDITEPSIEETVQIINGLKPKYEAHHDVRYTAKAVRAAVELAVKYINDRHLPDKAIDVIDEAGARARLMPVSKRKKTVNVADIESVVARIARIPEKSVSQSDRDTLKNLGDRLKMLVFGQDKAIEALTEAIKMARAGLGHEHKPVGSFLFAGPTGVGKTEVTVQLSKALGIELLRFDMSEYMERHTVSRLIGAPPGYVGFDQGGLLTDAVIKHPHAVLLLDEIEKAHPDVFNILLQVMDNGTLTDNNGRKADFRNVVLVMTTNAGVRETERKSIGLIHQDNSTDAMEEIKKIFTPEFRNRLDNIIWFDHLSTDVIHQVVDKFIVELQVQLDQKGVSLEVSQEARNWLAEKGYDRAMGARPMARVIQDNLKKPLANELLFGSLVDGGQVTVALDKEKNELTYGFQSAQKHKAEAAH

T2: ClpA D1 pore-2 loop variant Δ295–297, hexamer (E. coli, UniProt P0ABH9 1-758, M169T | Δ295–297)
T2 sequence: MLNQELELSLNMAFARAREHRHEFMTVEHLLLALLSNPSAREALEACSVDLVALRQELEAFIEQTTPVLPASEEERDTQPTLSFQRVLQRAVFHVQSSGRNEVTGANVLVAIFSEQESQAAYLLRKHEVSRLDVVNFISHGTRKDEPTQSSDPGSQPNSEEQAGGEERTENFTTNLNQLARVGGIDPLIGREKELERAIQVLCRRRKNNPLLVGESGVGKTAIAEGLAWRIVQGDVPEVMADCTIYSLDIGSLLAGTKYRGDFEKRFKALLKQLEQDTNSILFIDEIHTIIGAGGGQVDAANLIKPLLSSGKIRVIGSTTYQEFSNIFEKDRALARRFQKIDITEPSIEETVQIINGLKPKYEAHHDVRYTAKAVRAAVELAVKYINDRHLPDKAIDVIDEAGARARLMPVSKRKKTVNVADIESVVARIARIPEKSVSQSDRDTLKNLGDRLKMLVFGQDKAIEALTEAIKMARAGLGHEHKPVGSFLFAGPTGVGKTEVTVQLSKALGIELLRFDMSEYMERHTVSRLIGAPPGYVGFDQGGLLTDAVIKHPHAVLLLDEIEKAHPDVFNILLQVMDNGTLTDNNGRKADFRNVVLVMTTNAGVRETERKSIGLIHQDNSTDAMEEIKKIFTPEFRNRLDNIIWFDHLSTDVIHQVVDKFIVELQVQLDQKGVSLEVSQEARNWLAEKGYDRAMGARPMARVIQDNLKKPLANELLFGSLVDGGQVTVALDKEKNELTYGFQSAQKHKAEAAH

T3: ClpA D1 pore-2 loop variant KYR (AAS 295–297 to KYR), hexamer (E. coli, UniProt P0ABH9 1-758, M169T | 295–297 AAS to KYR)
T3 sequence: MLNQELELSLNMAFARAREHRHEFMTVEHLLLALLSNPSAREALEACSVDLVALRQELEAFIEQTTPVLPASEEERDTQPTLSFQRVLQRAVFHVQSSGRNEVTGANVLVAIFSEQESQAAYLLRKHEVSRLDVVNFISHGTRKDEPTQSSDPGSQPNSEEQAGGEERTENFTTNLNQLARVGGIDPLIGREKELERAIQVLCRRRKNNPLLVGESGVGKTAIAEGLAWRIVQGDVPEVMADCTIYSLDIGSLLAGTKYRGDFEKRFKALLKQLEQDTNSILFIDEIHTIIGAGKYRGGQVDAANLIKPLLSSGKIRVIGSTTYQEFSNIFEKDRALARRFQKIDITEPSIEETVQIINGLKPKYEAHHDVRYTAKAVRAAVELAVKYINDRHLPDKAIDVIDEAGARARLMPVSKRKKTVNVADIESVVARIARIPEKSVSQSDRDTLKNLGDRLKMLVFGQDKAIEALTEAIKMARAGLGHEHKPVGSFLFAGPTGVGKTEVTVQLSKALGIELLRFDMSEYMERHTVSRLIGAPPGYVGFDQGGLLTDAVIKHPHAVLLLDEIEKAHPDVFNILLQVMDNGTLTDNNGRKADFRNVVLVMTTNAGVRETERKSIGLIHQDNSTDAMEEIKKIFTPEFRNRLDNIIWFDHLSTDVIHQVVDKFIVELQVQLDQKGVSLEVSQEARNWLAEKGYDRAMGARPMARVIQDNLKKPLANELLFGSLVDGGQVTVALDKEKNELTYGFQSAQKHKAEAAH

T4: ClpA D1 pore-2 loop variant GGG (AAS 295–297 to GGG), hexamer (E. coli, UniProt P0ABH9 1-758, M169T | 295–297 AAS to GGG)
T4 sequence: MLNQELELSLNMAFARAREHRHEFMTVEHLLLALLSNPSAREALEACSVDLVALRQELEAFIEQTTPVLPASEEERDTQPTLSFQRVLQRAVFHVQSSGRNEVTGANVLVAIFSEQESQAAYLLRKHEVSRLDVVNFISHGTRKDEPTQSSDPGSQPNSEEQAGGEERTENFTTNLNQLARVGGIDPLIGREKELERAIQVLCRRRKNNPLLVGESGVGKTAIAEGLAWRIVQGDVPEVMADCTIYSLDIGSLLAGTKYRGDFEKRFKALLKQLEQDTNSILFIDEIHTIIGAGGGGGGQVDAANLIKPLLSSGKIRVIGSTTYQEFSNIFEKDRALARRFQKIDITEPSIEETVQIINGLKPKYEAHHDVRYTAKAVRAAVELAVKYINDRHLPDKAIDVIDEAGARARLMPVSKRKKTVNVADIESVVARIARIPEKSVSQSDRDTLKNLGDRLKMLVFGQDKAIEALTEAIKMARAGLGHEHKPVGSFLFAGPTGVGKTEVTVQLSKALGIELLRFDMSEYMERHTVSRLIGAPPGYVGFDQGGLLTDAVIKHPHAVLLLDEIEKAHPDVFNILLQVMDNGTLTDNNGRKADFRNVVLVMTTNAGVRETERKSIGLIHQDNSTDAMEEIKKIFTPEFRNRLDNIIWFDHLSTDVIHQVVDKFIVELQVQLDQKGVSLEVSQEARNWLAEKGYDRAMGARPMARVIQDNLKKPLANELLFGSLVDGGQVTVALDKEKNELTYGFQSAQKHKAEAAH

T5: ClpS adaptor (E. coli, UniProt P0A8Q6 1-106)
T5 chain: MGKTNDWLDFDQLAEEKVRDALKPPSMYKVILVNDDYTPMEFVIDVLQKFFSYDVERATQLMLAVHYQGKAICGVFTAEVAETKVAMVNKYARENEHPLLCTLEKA


Legend:
[1] = biological target: T6, ClpA (laboratory 'wild-type' ClpA carrying M169T), hexamer (E. coli, UniProt P0ABH9 1-758, M169T); assay: FP; equimolar ClpA6 + ClpS titrated against N-degron peptide
[2] = biological target: T1, ClpA D1 pore-2 loop variant QTQ (AAS …); assay: as above
[3] = biological target: T2, ClpA D1 pore-2 loop variant Δ295–297, …; assay: as above
[4] = biological target: T3, ClpA D1 pore-2 loop variant KYR (AAS …); assay: as above
[5] = biological target: T4, ClpA D1 pore-2 loop variant GGG (AAS …); assay: as above
[6] = biological target: T6, ClpA (laboratory 'wild-type' ClpA …); assay: FP
[7] = biological target: T1, ClpA D1 pore-2 loop variant QTQ (AAS …); assay: FP
[8] = biological target: T5, ClpS adaptor; assay: FP
[9] = biological target: T2, ClpA D1 pore-2 loop variant Δ295–297, …; assay: FP
[10] = biological target: T3, ClpA D1 pore-2 loop variant KYR (AAS …); assay: FP
[11] = biological target: T4, ClpA D1 pore-2 loop variant GGG (AAS …); assay: FP

Row | Binder | Kd [1] | Kd [2] | Kd [3] | Kd [4] | Kd [5] | Kd [6] | Kd [7] | Kd [8] | Kd [9] | Kd [10] | Kd [11]
1 | ClpS•N-degron peptide complex (ClpS with LLYVQRDSKEC-fluorescein) (complex, fluorescein (printed as LLYVQRDSKEC-fluorescein)) chain 1: MGKTNDWLDFDQLAEEKVRDALKPPSMYKVILVNDDYTPMEFVIDVLQKFFSYDVERATQLMLAVHYQGKAICGVFTAEVAETKVAMVNKYARENEHPLLCTLEKA chain 2: LLYVQRDSKEC | 0.056 µM | 0.065 µM | 0.044 µM | 0.073 µM | 0.041 µM | – | – | – | – | – | –
2 | LLYVQRDSKEC-fluorescein (not fully specified (residue 11); printed as LLYVQRDSKEC-fluorescein) [LLYVQRDSKEC-fluorescein N-degron synthetic peptide] | – | – | – | – | – | 1.2 µM | 0.9 µM | 2.6 µM | 1.2 µM | 0.55 µM | 0.67 µM
